Here are results for 1 substance from patent US20120130079A1.

The target of assay [1] is purified His-tagged Stat3 (murine Stat3, recombinant, expressed in BL21(DE3)) (murine) (UniProt P42227). The assay can be described thus: SPR (SensiQ), peptide as analyte over His-Stat3 immobilised on HisCap/Ni-NTA sensor chip.
For assay [2] the target is unchanged. The experiment in a line: fluorescence polarization competition; competitor/probe 5-carboxyfluorescein-GpYLPQTV-NH2 (10 nM), His-Stat3 150 nM.

purified His-tagged Stat3 (murine Stat3, recombinant, expressed in BL21(DE3)) (murine), sequence (P42227 whole entry): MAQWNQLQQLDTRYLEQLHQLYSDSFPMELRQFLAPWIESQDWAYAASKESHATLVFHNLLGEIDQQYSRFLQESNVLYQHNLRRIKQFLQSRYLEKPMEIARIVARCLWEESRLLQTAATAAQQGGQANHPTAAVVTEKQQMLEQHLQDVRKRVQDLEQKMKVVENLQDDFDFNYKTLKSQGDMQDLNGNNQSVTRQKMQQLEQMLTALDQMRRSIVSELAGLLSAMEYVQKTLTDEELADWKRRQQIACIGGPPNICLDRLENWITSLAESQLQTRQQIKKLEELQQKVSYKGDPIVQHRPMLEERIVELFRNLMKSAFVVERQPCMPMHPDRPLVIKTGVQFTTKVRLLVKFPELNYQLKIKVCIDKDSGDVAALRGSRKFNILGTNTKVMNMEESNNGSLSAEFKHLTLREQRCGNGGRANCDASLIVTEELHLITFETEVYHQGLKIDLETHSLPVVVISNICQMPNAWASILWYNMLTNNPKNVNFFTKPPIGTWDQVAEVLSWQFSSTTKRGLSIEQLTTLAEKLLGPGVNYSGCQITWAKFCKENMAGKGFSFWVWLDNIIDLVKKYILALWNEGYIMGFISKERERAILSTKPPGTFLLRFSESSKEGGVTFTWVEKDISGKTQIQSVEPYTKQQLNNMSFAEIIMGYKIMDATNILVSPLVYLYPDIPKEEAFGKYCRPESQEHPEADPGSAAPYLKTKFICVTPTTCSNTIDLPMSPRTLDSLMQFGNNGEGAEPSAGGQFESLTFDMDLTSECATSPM

Consider “GpYLPQTV-NH2, high affinity Stat3-binding phosphoTyr peptide derived from the interleukin-6 receptor subunit gp-130”, for which the Kd in assay [1] is 0.024 µM. For the same substance, in assay [2], the IC50 worked out at 0.3 µM.
